Paper PMC7580981 (2020)

Key:
[1] = target: two polymerase subunits (PA and PB1) of IBV polymerase (Pol2): PA-His, PB1 (influenza B virus); test: SPR
[2] = target: IBV polymerase trimeric complex (Pol3): PA-His, PB1, PB2 (influenza B virus); test: SPR

Row | Binder | Kd [1] [µM] | Kd [2] [µM]
1 | human ANP32A, purified (GST cleaved) (natural protein) MEMGRRIHLELRNRTPSDVKELVLDNSRSNEGKLEGLTDEFEELEFLSTINVGLTSIANLPKLNKLKKLELSDNRVSGGLEVLAEKCPNLTHLNLSGNKIKDLSTIEPLKKLENLKSLDLFNCEVTNLNDYRENVFKLLPQLTYLDGYDRDDKEAPDSDAEGYVEGLDDEEEDEDEEEYDEDAQVVEDEEDEDEEEEGEEEDVSGEEEEDEEGYNDGEVDDEEDEEELGEEERGQKRKREPEDEGEDDD | > 1000 | –
2 | human ANP32A C terminal truncated (huANP32A_165T), purified (GST cleaved) (domain or fragment) MEMGRRIHLELRNRTPSDVKELVLDNSRSNEGKLEGLTDEFEELEFLSTINVGLTSIANLPKLNKLKKLELSDNRVSGGLEVLAEKCPNLTHLNLSGNKIKDLSTIEPLKKLENLKSLDLFNCEVTNLNDYRENVFKLLPQLTYLDGYDRDDKEAPDSDAEGYVE | – | > 1000
